Laboratory results taken from US20040086521A1, “Method for the identification of antigenic peptides” (priority 2002, published 2004).

What was measured:
DRB1*0101 = DRB1*0101 (Homo sapiens, UniProt P01903+P01911, A100R/D57E/F55L/F60I/F76Y/I96L/L162R/M171V/P40L/Q125E/R42F/V115G/Y59C); assay: MHC peptide binding studies with synthetic peptide; conditions: MHC peptide binding study
DRB5*0101 = DRB5*0101 (Homo sapiens, UniProt P01903+Q30154); assay: MHC peptide binding studies with synthetic peptide; conditions: MHC peptide binding study
DRB1*0401 = DRB1*0401 (Homo sapiens, UniProt P01903+P01911, A100K/A169T/F76Y/I96L/K127E/L162R/M171V/N62H/P40V/Q125Y/R42H/S133A/S149N/S66Y/V115G/V209L/W38E); assay: MHC peptide binding studies with synthetic peptide; conditions: MHC peptide binding study
HLA-DR allele DRB5*0101 = HLA-DR allele DRB5*0101 (human); assay: MHC peptide binding study with synthetic peptide
HLA-DR allele DRB1*0101 = HLA-DR allele DRB1*0101 (human); assay: MHC peptide binding study with synthetic peptide
HLA-DR allele DRB1*0401 = HLA-DR allele DRB1*0401 (human); assay: MHC peptide binding study with synthetic peptide

Row | Molecule | binding capacity to allele DRB1*0101 (DRB1*0101) | binding capacity to allele DRB5*0101 (DRB5*0101) | binding capacity to allele DRB1*0401 (DRB1*0401) | binding result (HLA-DR allele DRB5*0101) | binding result (HLA-DR allele DRB1*0101) | binding result (HLA-DR allele DRB1*0401)
1 | KPGKTKTIVYQRGILLPQ | confirmed the binding capacity | confirmed the binding capacity | revealed the same |  |  | 
2 | KPGKTKTIVYQRGILLPQ |  |  |  | binds | binds | binds
